The assay addresses T1, EphB4 (human (endogenous in HDLEC), UniProt P54760 16-987).
T1 sequence (looked up): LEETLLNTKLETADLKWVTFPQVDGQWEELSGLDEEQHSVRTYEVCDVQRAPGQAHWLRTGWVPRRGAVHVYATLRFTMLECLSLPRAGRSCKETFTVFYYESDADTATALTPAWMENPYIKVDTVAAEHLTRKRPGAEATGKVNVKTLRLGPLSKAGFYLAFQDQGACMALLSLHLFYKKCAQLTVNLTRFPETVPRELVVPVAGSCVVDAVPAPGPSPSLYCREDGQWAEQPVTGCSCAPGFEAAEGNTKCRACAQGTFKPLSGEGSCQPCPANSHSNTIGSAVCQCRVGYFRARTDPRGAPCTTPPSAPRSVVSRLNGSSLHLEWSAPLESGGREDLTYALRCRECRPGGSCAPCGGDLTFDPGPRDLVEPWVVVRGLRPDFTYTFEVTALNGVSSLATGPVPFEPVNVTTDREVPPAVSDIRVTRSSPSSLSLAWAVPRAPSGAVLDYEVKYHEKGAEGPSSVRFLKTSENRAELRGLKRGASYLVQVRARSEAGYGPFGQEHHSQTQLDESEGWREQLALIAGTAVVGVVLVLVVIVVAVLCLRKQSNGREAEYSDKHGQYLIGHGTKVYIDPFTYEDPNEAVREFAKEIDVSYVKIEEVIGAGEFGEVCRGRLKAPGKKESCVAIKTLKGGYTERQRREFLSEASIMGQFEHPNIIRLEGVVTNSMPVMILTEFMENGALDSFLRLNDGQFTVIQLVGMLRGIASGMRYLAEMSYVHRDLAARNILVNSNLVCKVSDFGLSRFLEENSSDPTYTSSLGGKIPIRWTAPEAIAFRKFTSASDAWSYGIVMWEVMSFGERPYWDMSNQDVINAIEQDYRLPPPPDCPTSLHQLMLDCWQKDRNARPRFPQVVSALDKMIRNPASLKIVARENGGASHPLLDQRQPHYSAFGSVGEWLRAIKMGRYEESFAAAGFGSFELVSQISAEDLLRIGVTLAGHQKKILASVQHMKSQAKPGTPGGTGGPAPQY
Description: cell-based or functional assay.

The source of these data is paper PMC7478896, “EphrinB2-EphB4 signalling provides Rho-mediated homeostatic control of lymphatic endothelial cell junction integrity” (eLife, 2020).

B1: recombinant human EphrinB2-Fc (Fc fusion, UniProt P52799 28-229, looked up)
chain: IVLEPIYWNSSNSKFLPGQGLVLYPQIGDKLDIICPKVDSKTVGQYEYYKVYMVDKDQADRCTIKKENTPLLNCAKPDQDIKFTIKFQEFSPNLWGLEFQKNKDYYIISTSNGSLEGLDNQEGGVCQTRAMKILMKVGQDASSAGSTRNKDPTRRPELEAGTNGRSSTTSPFVKPNPGSSTDGNSAGHSGNNILGSEVALFA
For the molecule B1, the “Rac1 activity (Rac1-GTP pull-down) in HDLECs after 30 min stimulation with 0.5 µg/ml clustered EphrinB2-Fc” value was 2 fold.
